This assay has as its target propionyl-CoA synthase (PCS) from Erythrobacter sp. NAP1 (Erythrobacter sp. NAP1). The assay is described as follows: crystal structure.

The stoichiometry N is the number of molecules, sites or subunits per partner or assembly.

In the case of “propionyl-CoA synthase (PCS) from Erythrobacter sp. NAP1 (enzyme)”, the stoichiometry N was 2.

Values taken from publication PMC6499725.
